The labels stand for the following.
B1: TLE6 (parent)
chain: FWHDTLTEQLWRIFAGVHDEKAKP

Among the data in the supplement of paper PMC10567573 are protein stability index values, retold here.
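Further: lentivirally expressed fusions sorted by FACS into six bins by GFP to DsRed ratio, PSI derived from sequencing read proportions per bin multiplied by bin number.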

Variants of B1 are the subject of this data set. The data set is described as follows: protein stability index of a GFP-peptide fusion (GPS, HEK-293T) (PSI 1-6); higher = more stable. The conditions noted are these: c terminus: a fixed tail appended.
FWHDTLTEQLWRIDAGVHDEKAKP: the protein stability index is 1.61.

As to FWHDTLTEQLWRINAGVHDEKAKP, the protein stability index was 1.45.

In the case of FWHDTLTEQLWRIRAGVHDEKAKP, the protein stability index stood at 2.4.

For the variant FWHDTLTEQLWRIHAGVHDEKAKP, the protein stability index stood at 1.65.

FWHDTLTEQLWRIMAGVHDEKAKP: the protein stability index came out at 2.19.

With FWHDTLTEQLWRIYAGVHDEKAKP, the protein stability index came to 2.13.

As for FWHDTLTEQLWRILAGVHDEKAKP, the protein stability index came to 1.8.

Consider FWHDTLTEQLWRISAGVHDEKAKP, for which the protein stability index was found to be 1.75.

As to FWHDTLTEQLWRIKAGVHDEKAKP, the protein stability index turned out to be 2.61.

FWHDTLTEQLWRIGAGVHDEKAKP: the protein stability index came out at 2.21.

As for FWHDTLTEQLWRIEAGVHDEKAKP, the protein stability index was 2.19.

Regarding FWHDTLTEQLWRITAGVHDEKAKP, the protein stability index was determined as 2.39.

FWHDTLTEQLWRIQAGVHDEKAKP: the protein stability index worked out at 1.52.

On to FWHDTLTEQLWRIIAGVHDEKAKP, for which the protein stability index turned out to be 2.56.

In the case of FWHDTLTEQLWRICAGVHDEKAKP, the protein stability index came out at 2.62.

As for FWHDTLTEQLWRIPAGVHDEKAKP, the protein stability index came to 1.98.

As to FWHDTLTEQLWRIVAGVHDEKAKP, the protein stability index was determined as 2.35.

For the variant FWHDTLTEQLWRIAAGVHDEKAKP, the protein stability index is 1.65.

For FWHDTLTEQLWRIWAGVHDEKAKP, the protein stability index was determined as 1.89.

For the variant FWHDTLTEQLWRIFAGVHHEKAKP, the protein stability index stood at 1.65.

FWHDTLTEQLWRIFAGVHQEKAKP: the protein stability index came out at 1.22.

For the variant FWHDTLTEQLWRIFAGVHNEKAKP, the protein stability index was 2.8.

Consider FWHDTLTEQLWRIFAGVHMEKAKP, for which the protein stability index worked out at 2.1.

For FWHDTLTEQLWRIFAGVHIEKAKP, the protein stability index is 2.08.

Regarding FWHDTLTEQLWRIFAGVHAEKAKP, the protein stability index came to 2.33.

Consider FWHDTLTEQLWRIFAGVHCEKAKP, for which the protein stability index was 2.06.

In the case of FWHDTLTEQLWRIFAGVHSEKAKP, the protein stability index turned out to be 1.79.

Consider FWHDTLTEQLWRIFAGVHREKAKP, for which the protein stability index was 2.35.

FWHDTLTEQLWRIFAGVHEEKAKP: the protein stability index was determined as 1.62.

As to FWHDTLTEQLWRIFAGVHGEKAKP, the protein stability index came to 1.72.

FWHDTLTEQLWRIFAGVHWEKAKP: the protein stability index came to 3.85.

With FWHDTLTEQLWRIFAGVHKEKAKP, the protein stability index came to 1.7.

Turning to FWHDTLTEQLWRIFAGVHLEKAKP, the protein stability index came out at 1.39.

In the case of FWHDTLTEQLWRIFAGVHTEKAKP, the protein stability index came to 2.7.

As for FWHDTLTEQLWRIFAGVHFEKAKP, the protein stability index is 2.61.

Consider FWHDTLTEQLWRIFAGVHYEKAKP, for which the protein stability index was 2.97.

FWHDTLTEQLWRIFAGVHVEKAKP: the protein stability index worked out at 3.94.

As to FWHDTLTEQLWRIFAGVHPEKAKP, the protein stability index was found to be 1.8.

Turning to FWHDTLTEQLWRWFAGVHDEKAKP, the protein stability index amounted to 1.47.

For FWHDTLTEQLWRFFAGVHDEKAKP, the protein stability index amounted to 1.96.

Turning to FWHDTLTEQLWRVFAGVHDEKAKP, the protein stability index is 1.72.

Turning to FWHDTLTEQLWRTFAGVHDEKAKP, the protein stability index turned out to be 2.44.

As for FWHDTLTEQLWRYFAGVHDEKAKP, the protein stability index amounted to 2.1.

In the case of FWHDTLTEQLWRHFAGVHDEKAKP, the protein stability index was 1.94.

For the variant FWHDTLTEQLWRCFAGVHDEKAKP, the protein stability index turned out to be 2.39.

As to FWHDTLTEQLWRMFAGVHDEKAKP, the protein stability index was found to be 2.13.

With FWHDTLTEQLWRKFAGVHDEKAKP, the protein stability index was found to be 2.53.

Take FWHDTLTEQLWRDFAGVHDEKAKP: the protein stability index was determined as 1.78.

For the variant FWHDTLTEQLWRQFAGVHDEKAKP, the protein stability index is 2.54.

With FWHDTLTEQLWRLFAGVHDEKAKP, the protein stability index is 1.69.

For the variant FWHDTLTEQLWRNFAGVHDEKAKP, the protein stability index was determined as 1.59.

In the case of FWHDTLTEQLWRSFAGVHDEKAKP, the protein stability index amounted to 1.99.

Turning to FWHDTLTEQLWREFAGVHDEKAKP, the protein stability index came out at 2.99.

FWHDTLTEQLWRAFAGVHDEKAKP: the protein stability index was determined as 2.02.

In the case of FWHDTLTEQLWRPFAGVHDEKAKP, the protein stability index amounted to 2.85.

As for FWHDTLTEQLWRRFAGVHDEKAKP, the protein stability index amounted to 2.02.

As to FWHDTLTEQLWRIFAGVHDSKAKP, the protein stability index is 2.41.

Consider FWHDTLTEQLWRIFAGVHDNKAKP, for which the protein stability index stood at 2.19.

Consider FWHDTLTEQLWRIFAGVHDCKAKP, for which the protein stability index amounted to 1.79.

As for FWHDTLTEQLWRIFAGVHDMKAKP, the protein stability index is 2.88.

Take FWHDTLTEQLWRIFAGVHDHKAKP: the protein stability index was determined as 1.46.

For the variant FWHDTLTEQLWRIFAGVHDYKAKP, the protein stability index was found to be 2.01.

For FWHDTLTEQLWRIFAGVHDRKAKP, the protein stability index was determined as 1.24.

On to FWHDTLTEQLWRIFAGVHDFKAKP, for which the protein stability index turned out to be 1.82.

With FWHDTLTEQLWRIFAGVHDTKAKP, the protein stability index came to 1.91.

Regarding FWHDTLTEQLWRIFAGVHDDKAKP, the protein stability index came to 2.62.

As for FWHDTLTEQLWRIFAGVHDAKAKP, the protein stability index was determined as 2.37.

As for FWHDTLTEQLWRIFAGVHDVKAKP, the protein stability index was 1.9.

For FWHDTLTEQLWRIFAGVHDKKAKP, the protein stability index stood at 1.87.

Regarding FWHDTLTEQLWRIFAGVHDIKAKP, the protein stability index stood at 1.99.

Consider FWHDTLTEQLWRIFAGVHDWKAKP, for which the protein stability index came to 2.86.

For the variant FWHDTLTEQLWRIFAGVHDQKAKP, the protein stability index stood at 1.96.

Turning to FWHDTLTEQLWRIFAGVHDPKAKP, the protein stability index was found to be 1.87.

In the case of FWHDTLTEQLWRIFAGVHDGKAKP, the protein stability index was found to be 1.91.

For the variant FWHDTLTEQLWRIFAGIHDEKAKP, the protein stability index is 1.14.

FWHDTLTEQLWRIFAGLHDEKAKP: the protein stability index is 1.48.

Take FWHDTLTEQLWRIFAGTHDEKAKP: the protein stability index was 1.33.

For the variant FWHDTLTEQLWRIFAGWHDEKAKP, the protein stability index was 1.61.

Regarding FWHDTLTEQLWRIFAGFHDEKAKP, the protein stability index was 1.69.

With FWHDTLTEQLWRIFAGQHDEKAKP, the protein stability index worked out at 2.06.

Take FWHDTLTEQLWRIFAGHHDEKAKP: the protein stability index amounted to 2.82.

Regarding FWHDTLTEQLWRIFAGDHDEKAKP, the protein stability index was determined as 1.92.

With FWHDTLTEQLWRIFAGNHDEKAKP, the protein stability index amounted to 1.83.

As for FWHDTLTEQLWRIFAGPHDEKAKP, the protein stability index was 1.65.

Turning to FWHDTLTEQLWRIFAGKHDEKAKP, the protein stability index was 1.79.

Regarding FWHDTLTEQLWRIFAGMHDEKAKP, the protein stability index was 1.93.

As for FWHDTLTEQLWRIFAGRHDEKAKP, the protein stability index stood at 2.25.

FWHDTLTEQLWRIFAGAHDEKAKP: the protein stability index turned out to be 2.81.

As for FWHDTLTEQLWRIFAGYHDEKAKP, the protein stability index is 1.54.

As to FWHDTLTEQLWRIFAGGHDEKAKP, the protein stability index stood at 2.26.

FWHDTLTEQLWRIFAGSHDEKAKP: the protein stability index is 1.85.

Take FWHDTLTEQLWRIFAGCHDEKAKP: the protein stability index came out at 1.47.

With FWHDTLTEQLWRIFAGEHDEKAKP, the protein stability index was determined as 1.83.

Regarding FWHDTLTEQLWRIFAGVHDEGAKP, the protein stability index was 2.06.
